The values below come from doi:10.1101/2023.07.08.548186 (bioRxiv, 2023).

The target of experiment [1] is T1, ATG9A with N-terminal 6xHis and Twin-StrepII tags (human, UniProt Q7Z3C6 1-839).
T1 sequence: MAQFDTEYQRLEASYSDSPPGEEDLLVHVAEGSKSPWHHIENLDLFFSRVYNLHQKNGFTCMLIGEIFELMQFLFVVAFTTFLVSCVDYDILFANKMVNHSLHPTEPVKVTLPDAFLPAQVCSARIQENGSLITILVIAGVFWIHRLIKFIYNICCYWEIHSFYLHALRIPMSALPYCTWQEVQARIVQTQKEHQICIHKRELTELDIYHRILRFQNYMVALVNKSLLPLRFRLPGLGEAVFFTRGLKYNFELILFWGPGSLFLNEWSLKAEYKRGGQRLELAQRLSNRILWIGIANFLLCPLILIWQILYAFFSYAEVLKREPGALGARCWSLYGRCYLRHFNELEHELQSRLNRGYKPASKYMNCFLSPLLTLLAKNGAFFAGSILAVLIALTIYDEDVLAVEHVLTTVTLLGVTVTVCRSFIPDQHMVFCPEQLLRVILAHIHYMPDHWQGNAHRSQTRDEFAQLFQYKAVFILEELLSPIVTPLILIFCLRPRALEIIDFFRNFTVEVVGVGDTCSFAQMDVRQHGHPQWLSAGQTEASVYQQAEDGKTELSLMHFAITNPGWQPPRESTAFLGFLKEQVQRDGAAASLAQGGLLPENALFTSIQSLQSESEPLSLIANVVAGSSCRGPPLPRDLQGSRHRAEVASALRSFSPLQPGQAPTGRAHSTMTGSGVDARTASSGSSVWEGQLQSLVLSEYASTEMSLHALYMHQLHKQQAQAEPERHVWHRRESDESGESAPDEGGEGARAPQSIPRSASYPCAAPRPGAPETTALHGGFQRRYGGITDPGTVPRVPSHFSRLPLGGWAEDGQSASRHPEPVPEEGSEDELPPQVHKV
Description: cryo-EM structure.

Experiment [2] concerns the target T2, ATG9A with N-terminal 6xHis and Twin-StrepII tags (human), Q7Z3C6.
T2 chain: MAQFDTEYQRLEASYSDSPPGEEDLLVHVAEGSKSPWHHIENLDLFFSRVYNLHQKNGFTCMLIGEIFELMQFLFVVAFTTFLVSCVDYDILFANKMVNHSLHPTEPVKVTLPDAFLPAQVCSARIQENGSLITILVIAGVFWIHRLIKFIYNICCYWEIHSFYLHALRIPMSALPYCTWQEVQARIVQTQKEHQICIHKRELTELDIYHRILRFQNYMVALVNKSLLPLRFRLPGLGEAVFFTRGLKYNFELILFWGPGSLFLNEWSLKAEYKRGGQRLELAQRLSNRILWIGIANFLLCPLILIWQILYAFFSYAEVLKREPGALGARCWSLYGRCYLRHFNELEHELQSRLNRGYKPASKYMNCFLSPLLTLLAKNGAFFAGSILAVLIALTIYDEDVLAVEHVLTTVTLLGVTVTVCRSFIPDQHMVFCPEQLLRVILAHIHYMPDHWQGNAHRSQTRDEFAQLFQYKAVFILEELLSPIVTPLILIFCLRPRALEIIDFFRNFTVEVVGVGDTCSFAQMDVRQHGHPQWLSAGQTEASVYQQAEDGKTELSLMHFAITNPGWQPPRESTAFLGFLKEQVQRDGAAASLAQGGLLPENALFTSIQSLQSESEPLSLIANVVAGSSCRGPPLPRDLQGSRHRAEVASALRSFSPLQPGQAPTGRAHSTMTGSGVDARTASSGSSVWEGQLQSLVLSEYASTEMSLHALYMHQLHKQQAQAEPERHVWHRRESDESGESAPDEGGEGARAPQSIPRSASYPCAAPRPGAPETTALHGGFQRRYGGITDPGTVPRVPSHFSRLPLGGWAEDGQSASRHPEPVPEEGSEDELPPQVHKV
In words: cryo-EM structure. The note with it: remark: other sources report otherwise.

B1: human ATG2A, full length (natural protein)
chain: MSRWLWPWSNCVKERVCRYLLHHYLGHFFQEHLSLDQLSLDLYKGSVALRDIHLEIWSVNEVLESMESPLELVEGFVGSIEVAVPWAALLTDHCTVRVSGLQLTLQPRRGPAPGAADSQSWASCMTTSLQLAQECLRDGLPEPSEPPQPLEGLEMFAQTIETVLRRIKVTFLDTVVRVEHSPGDGERGVAVEVRVQRLEYCDEAVRDPSQAPPVDVHQPPAFLHKLLQLAGVRLHYEELPAQEEPPEPPLQIGSCSGYMELMVKLKQNEAFPGPKLEVAGQLGSLHLLLTPRQLQQLQELLSAVSLTDHEGLADKLNKSRPLGAEDLWLIEQDLNQQLQAGAVAEPLSPDPLTNPLLNLDNTDLFFSMAGLTSSVASALSELSLSDVDLASSVRSDMASRRLSAQAHPAGKMAPNPLLDTMRPDSLLKMTLGGVTLTLLQTSAPSSGPPDLATHFFTEFDATKDGPFGSRDFHHLRPRFQRACPCSHVRLTGTAVQLSWELRTGSRGRRTTSMEVHFGQLEVLECLWPRGTSEPEYTEILTFPGTLGSQASARPCAHLRHTQILRRVPKSRPRRSVACHCHSELALDLANFQADVELGALDRLAALLRLATVPAEPPAGLLTEPLPAMEQQTVFRLSAPRATLRLRFPIADLRPEPDPWAGQAVRAEQLRLELSEPQFRSELSSGPGPPVPTHLELTCSDLHGIYEDGGKPPVPCLRVSKALDPKSTGRKYFLPQVVVTVNPQSSSTQWEVAPEKGEELELSVESPCELREPEPSPFSSKRTMYETEEMVIPGDPEEMRTFQSRTLALSRCSLEVILPSVHIFLPSKEVYESIYNRINNDLLMWEPADLLPTPDPAAQPSGFPGPSGFWHDSFKMCKSAFKLANCFDLTPDSDSDDEDAHFFSVGASGGPQAAAPEAPSLHLQSTFSTLVTVLKGRITALCETKDEGGKRLEAVHGELVLDMEHGTLFSVSQYCGQPGLGYFCLEAEKATLYHRAAVDDYPLPSHLDLPSFAPPAQLAPTIYPSEEGVTERGASGRKGQGRGPHMLSTAVRIHLDPHKNVKEFLVTLRLHKATLRHYMALPEQSWHSQLLEFLDVLDDPVLGYLPPTVITILHTHLFSCSVDYRPLYLPVRVLITAETFTLSSNIIMDTSTFLLRFILDDSALYLSDKCEVETLDLRRDYVCVLDVDLLELVIKTWKGSTEGKLSQPLFELRCSNNVVHVHSCADSCALLVNLLQYVMSTGDLHPPPRPPSPTEIAGQKLSESPASLPSCPPVETALINQRDLADALLDTERSLRELAQPSGGHLPQASPISVYLFPGERSGAPPPSPPVGGPAGSLGSCSEEKEDEREEEGDGDTLDSDEFCILDAPGLGIPPRDGEPVVTQLHPGPIVVRDGYFSRPIGSTDLLRAPAHFPVPSTRVVLREVSLVWHLYGGRDFGPHPGHRARTGLSGPRSSPSRCSGPNRPQNSWRTQGGSGRQHHVLMEIQLSKVSFQHEVYPAEPATGPAAPSQELEERPLSRQVFIVQELEVRDRLASSQINKFLYLHTSERMPRRAHSNMLTIKALHVAPTTNLGGPECCLRVSLMPLRLNVDQDALFFLKDFFTSLVAGINPVVPGETSAEARPETRAQPSSPLEGQAEGVETTGSQEAPGGGHSPSPPDQQPIYFREFRFTSEVPIWLDYHGKHVTMDQVGTFAGLLIGLAQLNCSELKLKRLCCRHGLLGVDKVLGYALNEWLQDIRKNQLPGLLGGVGPMHSVVQLFQGFRDLLWLPIEQYRKDGRLMRGLQRGAASFGSSTASAALELSNRLVQAIQATAETVYDILSPAAPVSRSLQDKRSARRLRRGQQPADLREGVAKAYDTVREGILDTAQTICDVASRGHEQKGLTGAVGGVIRQLPPTVVKPLILATEATSSLLGGMRNQIVPDAHKDHALKWRSDSAQD
As for B1, in experiment [1], the stoichiometry N (usually a count of units in the complex or per binding partner) stood at 1 ATG2A per ATG9A trimer.

B2: ATG9A with N-terminal 6xHis and Twin-StrepII tags, Q7Z3C6 1-839 (natural protein)
chain: MAQFDTEYQRLEASYSDSPPGEEDLLVHVAEGSKSPWHHIENLDLFFSRVYNLHQKNGFTCMLIGEIFELMQFLFVVAFTTFLVSCVDYDILFANKMVNHSLHPTEPVKVTLPDAFLPAQVCSARIQENGSLITILVIAGVFWIHRLIKFIYNICCYWEIHSFYLHALRIPMSALPYCTWQEVQARIVQTQKEHQICIHKRELTELDIYHRILRFQNYMVALVNKSLLPLRFRLPGLGEAVFFTRGLKYNFELILFWGPGSLFLNEWSLKAEYKRGGQRLELAQRLSNRILWIGIANFLLCPLILIWQILYAFFSYAEVLKREPGALGARCWSLYGRCYLRHFNELEHELQSRLNRGYKPASKYMNCFLSPLLTLLAKNGAFFAGSILAVLIALTIYDEDVLAVEHVLTTVTLLGVTVTVCRSFIPDQHMVFCPEQLLRVILAHIHYMPDHWQGNAHRSQTRDEFAQLFQYKAVFILEELLSPIVTPLILIFCLRPRALEIIDFFRNFTVEVVGVGDTCSFAQMDVRQHGHPQWLSAGQTEASVYQQAEDGKTELSLMHFAITNPGWQPPRESTAFLGFLKEQVQRDGAAASLAQGGLLPENALFTSIQSLQSESEPLSLIANVVAGSSCRGPPLPRDLQGSRHRAEVASALRSFSPLQPGQAPTGRAHSTMTGSGVDARTASSGSSVWEGQLQSLVLSEYASTEMSLHALYMHQLHKQQAQAEPERHVWHRRESDESGESAPDEGGEGARAPQSIPRSASYPCAAPRPGAPETTALHGGFQRRYGGITDPGTVPRVPSHFSRLPLGGWAEDGQSASRHPEPVPEEGSEDELPPQVHKV
In experiment [2], B2 showed a stoichiometry N of 3.
